In this experiment the target is T1, Biotin-huCGRPaSA (human, not fully specified; biotin (position not given)).
T1 construct: exact construct ('aSA') not explained; also called Biotin CGRPaSA; full-length (1-37) CGRP
T1 peptide: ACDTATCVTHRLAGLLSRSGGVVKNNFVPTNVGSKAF
Briefly: ELISA, supernatant; relative to chimeric C245. The method, boiled down: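 Plates coated with biotin-CGRPaSA at 1.0 μg/mL (90 min, 37°C) and blocked with 2% BSA. Humanized antibodies and chimeric C245 reference, 2.5-fold serial dilutions from 1000 ng/mL, bound 60 min at 37°C. Detection by HRP anti-human IgG (Fc), TMB 15 min, read at 450/620 nm.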
A general note: An ELISA detects its analyte on a solid surface through an enzyme-linked reagent.

B1: hu150 (antibody, V domains shown)
VH: QVQLVQSGAEVKKPGASVKVSCKTSGYTFTDYNMHWVRQAPGQRLEWMGYISPYNGGTAYNQKFKFRVTLTVDTSSSTAYMELSSLRSEDTAVYYCAREGLGGYWGQGTLVTVSS
VL: DIVLTQSPASLAVSPGQRATITCKASQNIDFDGYAYMNWYQQKPGQPPKVLIYSVFNLESGVPARFSGSGSGTDFTLTINPVEADDTANYYCQQSHEVPYTFGQGTKLEIK
notes: 3E5 HC-1/1F5 LC1-3
On to B1, for which the “Relative binding activity, %” value came out at 64%.

B2: hu156 (antibody, V domains shown)
VH: QVQLVQSGAEVKKPGASVKVSCKTSGYTFTDYNMHWVRQAPGQRLEWMGYISPYNGGTAYNQKFKFRVTLTVDTSSSTAYMELSSLRSEDTAVYYCAREGLGGYWGQGTLVTVSS
VL: DIQLTQSPSSLSASVGDRVTITCKASQNIDYGGYSYMNWYQQKPGKAPKVLIYSVFNLESGVPSRFSGSGSGTDFTLTISSLQPEDFATYYCQQSNEAPYTFGQGTKLEIK
notes: 3E5 HC-1/3H10 LC2-2
Consider B2, for which the “Relative binding activity, %” value came out at 32%.

B3: hu155 (antibody, V domains shown)
VH: QVQLVQSGAEVKKPGASVKVSCKTSGYTFTDYNMHWVRQAPGQRLEWMGYISPYNGGTAYNQKFKFRVTLTVDTSSSTAYMELSSLRSEDTAVYYCAREGLGGYWGQGTLVTVSS
VL: DIVLTQSPDSLAVSLGERATINCKASQNIDYGGYSYMNWYQQKPGQPPKVLIYSVFNLESGVPDRFSGSGSGTDFTLTISSLQAEDVAVYYCQQSNEAPYTFGQGTKLEIK
notes: 3E5 HC-1/3H10 LC2-1
B3: the “Relative binding activity, %” value was found to be 74%.

B4: hu81 (antibody, V domains shown)
VH: QVQLVQSGAEVKKPGASVKVSCKASGYTFIDFNMHWVRQAPGQRLEWMGYIYPYNADVVYNQDFTNRVTLTVDTSSSTAYMELSSLRSEDTAVYYCAREGLGGYWGQGTLVTVSS
VL: EIVLTQSPATLSLSPGERATLSCKASQNIDYDGYAYLNWYQQKPGQAPRVLIYSVFNLESGIPARFSGSGSGTDFTLTISSLEPEDFAVYYCQQSNEFPYTFGQGTKLEIK
notes: 1F5 HC-5/1A2 LC2-3
Consider B4, for which the “Relative binding activity, %” value came out at 96%.

B5: hu94 (antibody, V domains shown)
VH: QVQLVQSGAEVKKPGASVKVSCKASGYTFTDYNMHWVRQAPGQRLEWMGYVYPYNGGSAYNQKFKSRVTLTVDTSSSTAYMELSSLRSEDTAVYYCAREGLGGYWGQGTLVTVSS
VL: EIVLTQSPATLSLSPGERATLSCKASQNIDYDGYAYLNWYQQKPGQAPRVLIYSVFNLESGIPARFSGSGSGTDFTLTISSLEPEDFAVYYCQQSNEFPYTFGQGTKLEIK
notes: 2A2 HC-1/1A2 LC2-3
B5: the “Relative binding activity, %” value was found to be 48%.

B6: hu91 (antibody, V domains shown)
VH: QVQLVQSGAEVKKPGASVKVSCKASGYTFIDFNMHWVRQAPGQRLEWMGYIYPYNADVVYNQDFTNRVTLTVDTSSSTAYMELSSLRSEDTAVYYCAREGLGGYWGQGTLVTVSS
VL: DIQLTQSPSSLSASVGDRVTITCKASQNIDYGGYSYMNWYQQKPGKAPKVLIYSVFNLESGVPSRFSGSGSGTDFTLTISSLQPEDFATYYCQQSNEAPYTFGQGTKLEIK
notes: 1F5 HC-5/3H10 LC2-2
As to B6, the “Relative binding activity, %” value was 98%.

B7: hu99 (antibody, V domains shown)
VH: QVQLVQSGAEVKKPGASVKVSCKASGYTFTDYNMHWVRQAPGQRLEWMGYVYPYNGGSAYNQKFKSRVTLTVDTSSSTAYMELSSLRSEDTAVYYCAREGLGGYWGQGTLVTVSS
VL: DIVLTQSPDSLAVSLGERATINCKASQNIDFDGYAYMNWYQHKPGQPPKVLIYSVFNLESGVPDRFSGSGSGTDFTLTISSLQAEDVAVYYCQQSHEVPYTFGQGTKLEIK
notes: 2A2 HC-1/1F5 LC1-4
Consider B7, for which the “Relative binding activity, %” value worked out at 74%.

B8: hu104 (antibody, V domains shown)
VH: QVQLVQSGAEVKKPGASVKVSCKASGYTFTDYNMHWVRQAPGQRLEWMGYVYPYNGGSAYNQKFKSRVTLTVDTSSSTAYMELSSLRSEDTAVYYCAREGLGGYWGQGTLVTVSS
VL: DIQLTQSPSSLSASVGDRVTITCKASQNIDYGGYSYMNWYQQKPGKAPKVLIYSVFNLESGVPSRFSGSGSGTDFTLTISSLQPEDFATYYCQQSNEAPYTFGQGTKLEIK
notes: 2A2 HC-1/3H10 LC2-2
Turning to B8, the “Relative binding activity, %” value turned out to be 45%.

B9: hu146 (antibody, V domains shown)
VH: QVQLVQSGAEVKKPGASVKVSCKTSGYTFTDYNMHWVRQAPGQRLEWMGYISPYNGGTAYNQKFKFRVTLTVDTSSSTAYMELSSLRSEDTAVYYCAREGLGGYWGQGTLVTVSS
VL: EIVLTQSPATLSLSPGERATLSCKASQNIDYDGYAYLNWYQQKPGQAPRVLIYSVFNLESGIPARFSGSGSGTDFTLTISSLEPEDFAVYYCQQSNEFPYTFGQGTKLEIK
notes: 3E5 HC-1/1A2 LC2-3
Take B9: the “Relative binding activity, %” value was found to be 107%.

B10: hu85 (antibody, V domains shown)
VH: QVQLVQSGAEVKKPGASVKVSCKASGYTFIDFNMHWVRQAPGQRLEWMGYIYPYNADVVYNQDFTNRVTLTVDTSSSTAYMELSSLRSEDTAVYYCAREGLGGYWGQGTLVTVSS
VL: DIVLTQSPASLAVSPGQRATITCKASQNIDFDGYAYMNWYQQKPGQPPKVLIYSVFNLESGVPARFSGSGSGTDFTLTINPVEADDTANYYCQQSHEVPYTFGQGTKLEIK
notes: 1F5 HC-5/1F5 LC1-3
With B10, the “Relative binding activity, %” value amounted to 76%.

B11: hu164 (antibody, V domains shown)
VH: QVQLVQSGAEVKKPGASVKVSCKASGYTFTDYNMHWVRQAPGQRLEWMGYISPYNGGTAYNQKFKFRVTLTVDTSSSTAYMELSSLRSEDTAVYYCAREGLGGYWGQGTLVTVSS
VL: DIVLTQSPDSLAVSLGERATINCKASQNIDFDGYAYMNWYQHKPGQPPKVLIYSVFNLESGVPDRFSGSGSGTDFTLTISSLQAEDVAVYYCQQSHEVPYTFGQGTKLEIK
notes: 3E5 HC-2/1F5 LC1-4
Consider B11, for which the “Relative binding activity, %” value came out at 56%.

B12: hu98 (antibody, V domains shown)
VH: QVQLVQSGAEVKKPGASVKVSCKASGYTFTDYNMHWVRQAPGQRLEWMGYVYPYNGGSAYNQKFKSRVTLTVDTSSSTAYMELSSLRSEDTAVYYCAREGLGGYWGQGTLVTVSS
VL: DIVLTQSPASLAVSPGQRATITCKASQNIDFDGYAYMNWYQQKPGQPPKVLIYSVFNLESGVPARFSGSGSGTDFTLTINPVEADDTANYYCQQSHEVPYTFGQGTKLEIK
notes: 2A2 HC-1/1F5 LC1-3
B12: the “Relative binding activity, %” value came out at 76%.

B13: hu103 (antibody, V domains shown)
VH: QVQLVQSGAEVKKPGASVKVSCKASGYTFTDYNMHWVRQAPGQRLEWMGYVYPYNGGSAYNQKFKSRVTLTVDTSSSTAYMELSSLRSEDTAVYYCAREGLGGYWGQGTLVTVSS
VL: DIVLTQSPDSLAVSLGERATINCKASQNIDYGGYSYMNWYQQKPGQPPKVLIYSVFNLESGVPDRFSGSGSGTDFTLTISSLQAEDVAVYYCQQSNEAPYTFGQGTKLEIK
notes: 2A2 HC-1/3H10 LC2-1
On to B13, for which the “Relative binding activity, %” value is 88%.

B14: hu75 (antibody, V domains shown)
VH: QVQLVQSGSELKKPGASVKVSCKASGYTFTDFNMHWVRQAPGQGLEWMGYIYPYNGDVVYNQNFTNRFVLSVDSSSSTAYLQISSLKAEDTAVYYCAREGLGGYWGQGTLVTVSS
VL: DVQLTQSPSFLSASVGDRVTITCQASQNIDGNTYMNWYQQKPGKAPKVLIYSIFNLESGVPSRFSGSGSGTEFTLTISSLQPEDFATYYCQQSNDYPYTFGQGTKLEIK
notes: 1F5 HC-4/2B8 LC2-2
In the case of B14, the “Relative binding activity, %” value worked out at 84%.

B15: hu78 (antibody, V domains shown)
VH: QVQLVQSGSELKKPGASVKVSCKASGYTFTDFNMHWVRQAPGQGLEWMGYIYPYNGDVVYNQNFTNRFVLSVDSSSSTAYLQISSLKAEDTAVYYCAREGLGGYWGQGTLVTVSS
VL: DIQLTQSPSSLSASVGDRVTITCKASQNIDYGGYSYMNWYQQKPGKAPKVLIYSVFNLESGVPSRFSGSGSGTDFTLTISSLQPEDFATYYCQQSNEAPYTFGQGTKLEIK
notes: 1F5 HC-4/3H10 LC2-2
As to B15, the “Relative binding activity, %” value was 64%.

For the origin of these results see patent US20260125454A1 (SHANGHAI JUNSHI BIOSCIENCES, published 2026).
